In the Human Domainome abundance scans (Beltran et al. 2025):
± gives the uncertainty stated by the source.

B1: Tumor protein p73, residues 487 to 549; numbered along this chain, O15350 (parent)
chain: YHADPSLVSFLTGLGCPNCIEYFTSQGLQSIYHLQNLTIEDLGALKIPEQYRMTIWRGLQDLK

Variants of: B1
Assay: abundance fitness (aPCA) (normalised: wild type 0, dead -1); higher = more abundant; growth selection in yeast, the domain comes from the species named
Conditions: Homo sapiens

Variant | abundance fitness
YHADPSLVSFLTGLGCPNCIEYFTSQGLQSIYHLQNLTIEDLGALKIPEQYRFTIWRGLQDLK [M53F] | -0.123 ± 0.063
YHADPSLVSFLIGLGCPNCIEYFTSQGLQSIYHLQNLTIEDLGALKIPEQYRMTIWRGLQDLK [T12I] | -0.032 ± 0.04
YNADPSLVSFLTGLGCPNCIEYFTSQGLQSIYHLQNLTIEDLGALKIPEQYRMTIWRGLQDLK [H2N] | 0.216 ± 0.07
YLADPSLVSFLTGLGCPNCIEYFTSQGLQSIYHLQNLTIEDLGALKIPEQYRMTIWRGLQDLK [H2L] | 0.202 ± 0.044
YWADPSLVSFLTGLGCPNCIEYFTSQGLQSIYHLQNLTIEDLGALKIPEQYRMTIWRGLQDLK [H2W] | 0.119 ± 0.063
YHADPSLVSFLTGLGCPNCIEAFTSQGLQSIYHLQNLTIEDLGALKIPEQYRMTIWRGLQDLK [Y22A] | -0.035 ± 0.036
YHADPALVSFLTGLGCPNCIEYFTSQGLQSIYHLQNLTIEDLGALKIPEQYRMTIWRGLQDLK [S6A] | 0.041 ± 0.052
YHADASLVSFLTGLGCPNCIEYFTSQGLQSIYHLQNLTIEDLGALKIPEQYRMTIWRGLQDLK [P5A] | 0.11 ± 0.063
YHADHSLVSFLTGLGCPNCIEYFTSQGLQSIYHLQNLTIEDLGALKIPEQYRMTIWRGLQDLK [P5H] | 0.003 ± 0.064
YHADQSLVSFLTGLGCPNCIEYFTSQGLQSIYHLQNLTIEDLGALKIPEQYRMTIWRGLQDLK [P5Q] | -0.005 ± 0.055
YHADPSLVSFLTGLGCPNCIEYFTSQGLQSIYHLQNLTIEDLGALKIPEQYRMTIWRGLQILK [D61I] | 0.006 ± 0.046
YHADPSLVSFLTGLGCPNCIEYFTSQHLQSIYHLQNLTIEDLGALKIPEQYRMTIWRGLQDLK [G27H] | -0.004 ± 0.053
YHADPSLVSFLTGLGCPNCIEYFTSQGLWSIYHLQNLTIEDLGALKIPEQYRMTIWRGLQDLK [Q29W] | -0.139 ± 0.035
YHADPSLVSFLTGLGCPNCIEYFTSQGLQSIYHLQNLTIEDLGALKIREQYRMTIWRGLQDLK [P48R] | -0.42 ± 0.038
YHADPSLVSFLTGLGCPNIIEYFTSQGLQSIYHLQNLTIEDLGALKIPEQYRMTIWRGLQDLK [C19I] | -0.055 ± 0.09
YHADPSLVSFLTGLGCPNAIEYFTSQGLQSIYHLQNLTIEDLGALKIPEQYRMTIWRGLQDLK [C19A] | -0.033 ± 0.042
YHADPSLVSFLTGLGCPNCIEYFTSDGLQSIYHLQNLTIEDLGALKIPEQYRMTIWRGLQDLK [Q26D] | -0.2 ± 0.086
YHADPSLVSFLTGLGCPNCIEYFTSHGLQSIYHLQNLTIEDLGALKIPEQYRMTIWRGLQDLK [Q26H] | 0.035 ± 0.085
YHADPSLVSFLTGLGCPNCIEYFTSQGLQSIYHLQNLTIEDLGALKIPEQYRMTIWRRLQDLK [G58R] | -0.197 ± 0.046
YHADPSLVSFLTGLGCPNCIEYFTSQGLQSIYHLQNLTIEDLGALKIPEQYRMTIWRALQDLK [G58A] | 0.038 ± 0.045
YHADPSLVSFLTGLGCPNCIEYFTSQGLQSIYHLQNLYIEDLGALKIPEQYRMTIWRGLQDLK [T38Y] | -0.409 ± 0.11
YHADPSMVSFLTGLGCPNCIEYFTSQGLQSIYHLQNLTIEDLGALKIPEQYRMTIWRGLQDLK [L7M] | -0.023 ± 0.04

Variant | abundance fitness
YHADPSSVSFLTGLGCPNCIEYFTSQGLQSIYHLQNLTIEDLGALKIPEQYRMTIWRGLQDLK [L7S] | -0.831 ± 0.06
YHADPSLVSFLTGLGCPNCIEYFTSQGLQSIYHLQNLTIEDLGALKIPEPYRMTIWRGLQDLK [Q50P] | -0.132 ± 0.054
YHADPSLVSFLTGLGCPNCIEYFTSQGLQSIYHLQNLTIEDLGALKIPENYRMTIWRGLQDLK [Q50N] | 0.009 ± 0.07
YHADPSLVYFLTGLGCPNCIEYFTSQGLQSIYHLQNLTIEDLGALKIPEQYRMTIWRGLQDLK [S9Y] | -0.237 ± 0.04
YHADPSLVSFLTGLGCPNCIEYFTSQGLQSIYHLQNLTIENLGALKIPEQYRMTIWRGLQDLK [D41N] | -0.042 ± 0.057
YHADPSLVSFLTGLGCPNCIEYFTSQGLQSIYALQNLTIEDLGALKIPEQYRMTIWRGLQDLK [H33A] | -0.014 ± 0.035
YHADPSLVSFLTGLGCPNCIEYFTSQGLQSIYRLQNLTIEDLGALKIPEQYRMTIWRGLQDLK [H33R] | -0.055 ± 0.031
YHADPSLVSFLTGLGCPNCIEYFTSQGLQSIYKLQNLTIEDLGALKIPEQYRMTIWRGLQDLK [H33K] | 0.112 ± 0.041
YHADPSLVSFLTGLGCPNCIEYFTSQGLQSIYHLQALTIEDLGALKIPEQYRMTIWRGLQDLK [N36A] | -0.04 ± 0.04
YHADPSLVSFLTGLGCPNCIEYFTSQGLQSIYHPQNLTIEDLGALKIPEQYRMTIWRGLQDLK [L34P] | -0.671 ± 0.12
YHADPSLVSFLTGLGCPNCIEYFTSQGLQSIYHLQNLTIEDLGALKIPEQYRMEIWRGLQDLK [T54E] | -0.061 ± 0.07
YHADPSLVSFLTGLGCPNCIEYFTSQGLQSIYHLQNLTIEDLHALKIPEQYRMTIWRGLQDLK [G43H] | 0.16 ± 0.11
YHADPSLVSFLTGLGCPNCIEYFTSQGLQSIYHLQNLTIEDLMALKIPEQYRMTIWRGLQDLK [G43M] | 0.028 ± 0.066
YHADPSLVSFLTGLGCPNCIEYFTSQGLQSIYHLQNLTIEDLGALKIPEQYRMTIWRGKQDLK [L59K] | -0.561 ± 0.11
YHADPSLVSFLTGLGCPNCIEYFTSQGLQSIYHLQNLTIEDLGALKIPLQYRMTIWRGLQDLK [E49L] | -0.042 ± 0.036
YHADPSLVSFLTGLGCPNCIEYFTSQGLQSIYHLQNLTIEDLGALKIPCQYRMTIWRGLQDLK [E49C] | -0.061 ± 0.052
YHADPSLVSFLTGLGCPNCIEYFTSQGLQSIYHLQNLTIEDLGAEKIPEQYRMTIWRGLQDLK [L45E] | -0.553 ± 0.07
YHADPSLVSFLTGLGCPNCIEYFTNQGLQSIYHLQNLTIEDLGALKIPEQYRMTIWRGLQDLK [S25N] | 0.001 ± 0.1
MHADPSLVSFLTGLGCPNCIEYFTSQGLQSIYHLQNLTIEDLGALKIPEQYRMTIWRGLQDLK [Y1M] | 0.18 ± 0.063
YHADPSLVSFLTGLGCHNCIEYFTSQGLQSIYHLQNLTIEDLGALKIPEQYRMTIWRGLQDLK [P17H] | -0.031 ± 0.1
YHADPSLVSFLTGLGCYNCIEYFTSQGLQSIYHLQNLTIEDLGALKIPEQYRMTIWRGLQDLK [P17Y] | 0.017 ± 0.063
